In US20120270234A1, “DDR2 PROTEIN WITH ACTIVATED KINASE ACTIVITY AND PREPARATION METHOD THEREOF” (KOREA INSTITUTE OF SCIENCE AND TECHNOLOGY, priority 2003, published 2012):

T1: fusion protein of glutathione S transferase and human DDR2 cytosolic tyrosine kinase domain (GST-DDR2 CKD), expressed alone in sf9 cells
T1 sequence: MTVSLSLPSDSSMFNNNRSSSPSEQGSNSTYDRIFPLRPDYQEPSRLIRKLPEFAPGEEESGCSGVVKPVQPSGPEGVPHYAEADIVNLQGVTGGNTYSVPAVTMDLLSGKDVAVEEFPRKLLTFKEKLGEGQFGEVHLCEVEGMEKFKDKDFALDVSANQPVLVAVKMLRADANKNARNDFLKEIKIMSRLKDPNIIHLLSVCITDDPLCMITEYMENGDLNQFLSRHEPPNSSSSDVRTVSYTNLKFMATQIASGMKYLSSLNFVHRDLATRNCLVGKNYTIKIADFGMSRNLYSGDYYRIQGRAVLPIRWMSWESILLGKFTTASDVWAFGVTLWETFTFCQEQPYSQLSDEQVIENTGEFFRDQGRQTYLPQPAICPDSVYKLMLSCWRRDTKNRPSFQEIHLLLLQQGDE


What was measured:
[1] = test system: T1, fusion protein of glutathione S transferase and human DDR2 cytosolic tyrosine kinase domain (GST-DDR2 CKD), expressed alone in sf9 cells
[2] = test system: Histone H2B; test: tyrosine kinase activity using Histone H2B as substrate; assay type: biochemical; conditions: reciprocal plotting 1/V vs 1/[ATP]; FIG. 9, FIG. 10
Experimental: The GST-DDR2 CKD was solely expressed or co-expressed with the c-Src protein at the ratio of 1:1 in insect cells; the respective obtained GST-DDR2 CKDs were purified; and the tyrosine kinase activities depending on the concentration of ATP were determined using the same amounts of the tyrosine phosphorylation-induced GST-DDR2 CKD (p-GST-DDR2 CKD by Src) which is obtained by co-expression with the c-Src protein in sf 9 cells and non-phosphorylated GST-DDR2 CKD which is obtained by solely expression in sf9 cells.
All measurements were done in triplicate.
The same amount of each protein as judged by CBB staining was used to measure its in vitro tyrosine kinase activity using histone H2B as a substrate as described in materials and methods and their tyrosine kinase activities were shown by autoradiography. Negative stands for a kinase reaction without kinase protein as a control.
Measurement of DDR2 tyrosine kinase activity towards heterologous peptide substrates was performed using 100 ng of the purified kinase protein in 20 ul of reaction mixture containing 20 mM Tris-HCl, pH 8.0, 5 mM MgCl2, 0.5 mM dithiothreitol, 0.01 mM ATP. […] The spotted filter was washed with 0.1M Tris-HCl (pH 8.0) five times for 10 min each and the radioactivity of each spot was visualized and quantitated using BAS image analyzer (Kodak).

[3] = test system: shc protein; test: in vitro shc binding assay using HSC T6 cell lysate; set-up: species or system human
Excerpt: One of the characteristic features of tyrosine phosphorylated cytosolic domain of receptor tyrosine kinase is to recruit the signaling proteins such as shc protein. This complex formation between the cytosolic domain of receptor tyrosine kinase protein and signaling proteins such as shc is important for the cellular transmission of the activated receptor tyrosine kinase signal. It has been observed in HSC T6 liver stellate cells and fibroblast cells that shc, one of signaling protein containing PTB domain binds to activated DDR2 cytosolic domain. The present inventors examined whether the invented DDR2 cytosolic tyrosine kinase domain protein with induced tyrosine phosphorylation for example, by the method of co-expression with c-Src in sf 9 cells or with the mutation of tyrosine 740 to phenylalanine 740 can be used for in vitro shc binding assay. In FIG. 15, the purified GST-DDR2 cytosolic domain from sf 9 cells with and without Src coinfection were used for in vitro shc binding assay. Each protein was subject to autophosphorylation reaction at 30° C. for 15 min, and a mock-autophosphylation reaction as well where gamma-S-ATP was used instead of ATP in the reaction buffer before they were used for in vitro shc binding assay using HSC T6 cell lysate.
The purified GST-DDR2 CKD proteins without or with tyrosine phosphorylation by Src were subject to in vitro shc binding assay after autophosphorylation reaction or a mock-autophosphorylation reaction as described in materials and methods. The bound proteins on the glutathione bead were eluted by boiling in 1× lameli buffer. The presence of shc in the eluate was measured by western blotting using shc antibody and the accumulation of tyrosine phosphorylation at GST-DDR2 CKD proteins resulted from autophosphorylation was shown by western blotting using P-tyro antibody. The presence of an equal amount of GST-DDR2 CKD proteins in each eluate was confirmed by CBB staining. ‘Bead only’ means that no GST-DDR2 CKD protein was applied on glutathione bead as a control.
The same type of experiment was done as FIG. 15 using purified GST-DDR2 CKD phosphorylated by src and its mutant proteins of Y740F and Y736/740/741F.
As a source of shc protein, total lysate of HSC T6 cells was used. For the preparation of the lysate, 2×10^7 HSC T6 cells were harvested and lysed by sonication in 5 ml of lysis buffer consisting of 20 mM Tris-HCl (pH8.0), 0.1M NaCl, 5 mM DTT, 10 mM NaF, […], 0.02% IGE-PAL (Sigma) and a proteinase inhibitor cocktail pellet (Roche). The supernatant was obtained by centrifugation in 15,000 rpm for 10 min at 4° C. and used for the following shc binding assay. Various GST-DDR2 KD proteins bound to glutathione bead were obtained as described above. […]

| Molecule | level of tyrosine phosphorylation of GST-DDR2 CKD against the ratio of the two baculoviruses (western blot, phosphorylated tyrosine specific antibody) [1] | Km value for ATP compared with the non-phosphorylated control protein [2] | Vmax compared with the non-phosphorylated control protein [2] | shc binding after in vitro autophosphorylation reaction ([3]; autophosphorylation at 30° C. for 15 min, FIG. 15, FIG. 16) | shc binding before in vitro autophosphorylation ([3]; mock-autophosphorylation with gamma-S-ATP, FIG. 15) |
| --- | --- | --- | --- | --- | --- |
| full-length human c-Src tyrosine kinase | The tyrosine phosphorylation at the DDR2 cytosolic tyrosine kinase domain was meaningfully induced, when the DDR2 kinase expression virus and the c-Src protein expression virus are co-expressed even at the ratio of 19:1 | – | – | – | – |
| p-GST-DDR2 CKD by Src: tyrosine phosphorylation-induced GST-DDR2 CKD obtained by co-expression with the c-Src protein in sf 9 cells (protein, left off: a dimerising Fc or GST, tyrosine phosphorylation-induced GST-DDR2 CKD obtained by co-expression with the c-Src protein in sf 9 cells) MTVSLSLPSDSSMFNNNRSSSPSEQGSNSTYDRIFPLRPDYQEPSRLIRKLPEFAPGEEESGCSGVVKPVQPSGPEGVPHYAEADIVNLQGVTGGNTYSVPAVTMDLLSGKDVAVEEFPRKLLTFKEKLGEGQFGEVHLCEVEGMEKFKDKDFALDVSANQPVLVAVKMLRADANKNARNDFLKEIKIMSRLKDPNIIHLLSVCITDDPLCMITEYMENGDLNQFLSRHEPPNSSSSDVRTVSYTNLKFMATQIASGMKYLSSLNFVHRDLATRNCLVGKNYTIKIADFGMSRNLYSGDYYRIQGRAVLPIRWMSWESILLGKFTTASDVWAFGVTLWETFTFCQEQPYSQLSDEQVIENTGEFFRDQGRQTYLPQPAICPDSVYKLMLSCWRRDTKNRPSFQEIHLLLLQQGDE | – | decreased | increased | significantly increased | some shc binding |
